These results are taken from paper doi:10.1101/2022.02.25.481886.

The experiment has as its target RFP-VAP27-1 (Arabidopsis) (UniProt Q8VZ95). The experiment can be described thus: FRET or BRET. In general terms: In BRET a luciferase serves as donor, and the signal depends on an acceptor being close.
Sequence of UniProt Q8VZ95 (Q8VZ95 whole entry): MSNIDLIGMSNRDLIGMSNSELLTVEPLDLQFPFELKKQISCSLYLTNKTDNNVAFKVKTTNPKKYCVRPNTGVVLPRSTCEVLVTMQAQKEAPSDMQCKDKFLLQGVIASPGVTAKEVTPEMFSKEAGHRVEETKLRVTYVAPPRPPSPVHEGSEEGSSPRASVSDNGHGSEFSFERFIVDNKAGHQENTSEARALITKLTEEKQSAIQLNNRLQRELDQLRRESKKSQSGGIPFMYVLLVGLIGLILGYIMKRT

As for GFP-TraB1b (natural protein), the fluorescence lifetime of the GFP donor with the RFP acceptor was determined as 2.21 ns.
